Reference: the supplement of paper PMC9170038

Test system: K4 kissing-loop RNA reporter
Experiment: apparent KD of K4 kissing-loop reporter; higher = weaker reporter binding
Settings: Eterna round: R107
Protocol: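 RNA-MaP round R107: designed RNA switches with theophylline, tryptophan, arginine or FMN aptamers are transcribed on-chip within common flanks. They are titrated with a labelled K4 kissing-loop RNA reporter in RNA-MaP buffer (100 mM Tris pH 7.5, 80 mM KCl, 4 mM MgCl2), without ligand or with the indicated ligand. Median apparent KD per design.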

[1] = input ligand: theophylline 20 uM
[2] = input ligand: tryptophan 2.4 mM
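Further: bound reporter read as fluorescence of individual clusters on recovered sequencing chips by microscopy, with normalized cluster intensities fitted with a binding model.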

| Sequence | apparent KD of K4 kissing-loop reporter (input ligand: FMN 200 uM) [µM] | apparent KD of K4 kissing-loop reporter (input ligand: arginine 13.2 mM) [µM] | apparent KD of K4 kissing-loop reporter (input ligand: none) [µM] | apparent KD of K4 kissing-loop reporter [1] [µM] | apparent KD of K4 kissing-loop reporter [2] [µM] |
| --- | --- | --- | --- | --- | --- |
| AAGGGCUAGGCGGCCGCCACUGGUCGUGUACACAUACGAGCCAGUGAUGUUGGUAUUGUGUGCGGCAGGACCGGGCCUAGCCGAA [Exclusion - Tryptophan B (Freestyle 25)] | 0.41 | 0.303 | 0.304 | 0.468 | 0.387 |
| UCCGUUGCGGCGGCCGCCACUGACUUAUUGAUUAGGUUGCCAGUGAUGUUGGCCACCGGUCAAUACAGGACCGGGCCAUAGCGGG [Retive] | 0.16 | 0.208 | 0.259 | 0.148 | 0.11 |
| GGACUCAAAUGUAGUGAUGUUACAAGCGAUACCAGUAUCUAACAUUACCCUUGGCAGCGCGCCCAGCUCAGCAAAUUAGAUAGCG [theeternabot_sameState_KL_Theo_A_43] | 0.149 | 0.204 | 0.178 | 0.268 | 0.114 |
| UUAGAAGUAUACUUCAAGAGGUAUGCUGAUACCAGAGUCAAUUGACUCCCUUGGCAGCGGAUCGAGUGAUGUUCGUAACCUCAUU [AK3.1 SS Theophylline A] | 0.16 | 0.238 | 0.209 | 0.246 | 0.141 |
| CGGCGUGCCUUAUCCUCAUCUCUGACUCAACGAGGACCGGUACGGCCGCCACUCGGAAGAGGCAGUGAUGUUGCCUACGCCGGUG [Oronat] | 0.0763 | 0.0827 | 0.0773 | 0.0823 | 0.0814 |
| GCCGUACGCACGGAUACCAGCACUCGGUGAGUGAUGUUCACGGUGUGGUAUUCAUCGGGCUGCCCUUGGCAGCCGUGCGUACGGC | 0.153 | 0.0936 | 0.101 | 0.129 | 0.107 |
| GUGUAAGUGAUGUUUGCACACACGUCGGAUACCAGAGACUUUAGCCUCCCUUGGCAGCCGCCGGCCAUAAGAGCAAGUCGAUUUA [theeternabot_sameState_KL_Theo_A_20] | 0.197 | 0.186 | 0.21 | 0.194 | 0.176 |
| UCCUGCAAUCUGCCACGAAAGUGGAUUGAUACCAGAGUCGAAAGACUCCCUUGGCAGCGAGUGAUGUUCGACGCAGGUAAAUAAA [MatMod 5 - Jieux - Exclusion - Theophylline A] | 0.142 | 0.224 | 0.178 | 0.234 | 0.135 |
| GUCCAAACACAGUGAUGUUGUGAAUAUGAAGGAGCGGACGAAAGUCCAGGUAGGUCGCAUAAAGGACACCUACGAAAAGUAGGAA [#SwitchBubble 5 #K4Early] | 0.172 | 0.201 | 0.228 | 0.222 | 0.159 |
| GUAUAUCGAACUGAUACCAGAGAAUAUAGCAGUGAUGUUGCAUAUAUGAAUAAGACUCGACUCCCUUGGCAGCGGGAAGAUAUAC [On purpose 2] | 0.132 | 0.169 | 0.137 | 0.166 | 0.142 |
| CGAGUGAUGUUCGAAGAGUUGUUAAGCGAUACCAGCUAGGAGACUGGCCCUUGGCAGCGUAAUAAGUUAAUAAAUAAAUGAUCAC [whbob_Ex_Theo_A_th65] | 0.293 | 0.384 | 0.36 | 0.506 | 0.285 |
| CCAUCGCUAUUCGAUACCAGUCAAAAUAAAAUAAUAAAUCUGCAAAGGAGUGAUGUUCCAGACCCUUGGCAGCGAAUAGUGAUGG [Theophylline B K4 2] | 0.746 | 0.552 | 0.834 | 0.709 | 0.723 |
| GGCAUAUAAAAUUGCCUAGAGAGAAAGGAUACCAGCACCCGGCGGUGCCCUUGGCAGCCUAGCCCAGUGAUGUUGGGUCCUCUAA [Esinvege] | 0.237 | 0.13 | 0.189 | 0.235 | 0.223 |
| UGGAGUUGACGAAGAGUCAACUCCUGAGAUACCAGUGACGAAAGUCACCCUUGGCAGCUCUCUGCCAGUGAUGUUGGUUUAUAAG [#07 K4 Theophylline A Same State] | 0.139 | 0.0894 | 0.144 | 0.177 | 0.117 |
| ACGUAUAUCAGAGGAUAUCGUAUUAAUAUUUUAUCUAUAUAGUUUUGCAGUGAUGUUGCAAUUAUUCGAGAAGGCUGAUUUACGA [JR_SSFMNB_Sub024] | 0.0861 | 0.0956 | 0.0753 | 0.0892 | 0.0692 |
| GUACCUUGGAAACAAGGACAGCUAACCGAAGGAGCGCGUGAAAACGCAGGUAGGUCGCGGUAGCGGAGUGAUGUUCCGCGAGAGC [Same State Arginine A GF 19] | 0.114 | 0.0858 | 0.0888 | 0.103 | 0.108 |
| CGCGCGCGCGCGCGCGCGCGCGAAAAUGAUACCAGUAUAUAAGAAUACCCUUGGCAGCAUAAGAAAGAUAUAGUGAUGUUGUAUA [SSTheophA.A] | 0.212 | 0.0765 | 0.279 | 0.316 | 0.161 |
| UGCCGCAAGGCGAGCGCUCCCACUCCGGAAGGAGCGCCCGUAAGGGCAGGUAGGUCGCCGGAGUGAUGUUCCGGUGGAGGGCUCG [#2 Exclusion - Arginine A Attempt #24 (Inspired by Omei)] | 1.27 | 0.283 | 0.537 | 0.398 | 0.351 |
| UAACAGGCCCUCACCGUCUUAUUUACAGACCGAGGACCGGUACGGCCGCCACUCGUGAAGUGAUGUUUCAAACAAGCGGUAGGAU | 0.721 | 0.467 | 0.685 | 0.48 | 0.328 |
| AGGGACGAUAGCGAUACCAGAGGUCGCAAAUUCGCGCCGUUUUUUAGGAAGUGAUGUUUUCUCCCUUGGCAGCGCCCUUAGAGUU [theeternabot_exclusion_KL_Theo_B_47] | 0.881 | 0.435 | 0.945 | 0.795 | 0.688 |
| UCCUAGGCUCGAAAGAGCCUAGGAUUUACUCAGGAUAUCCGGAAACGGAGAAGGGAGUAACUAGUGAUGUUAGGGAUUCCCUAUU | 0.552 | 0.113 | 0.123 | 0.131 | 0.125 |

| Sequence | apparent KD of K4 kissing-loop reporter (input ligand: FMN 200 uM) [µM] | apparent KD of K4 kissing-loop reporter (input ligand: arginine 13.2 mM) [µM] | apparent KD of K4 kissing-loop reporter (input ligand: none) [µM] | apparent KD of K4 kissing-loop reporter [1] [µM] | apparent KD of K4 kissing-loop reporter [2] [µM] |
| --- | --- | --- | --- | --- | --- |
| UGAUAGGACAGAAGGAGCGGAAUGCUGUCCAAAAGGACAGCAAAUAUAACAGGAGUGAUGUUCCAGGUAGGUCGCUGUCCUAUCU [ArgBX 21 #SwitchBubble #StaticStem] | 0.246 | 0.197 | 0.214 | 0.199 | 0.187 |
| UGGACCUGACUCGAUAAGAGUCAAUGGGAUACCAGCCACGAAAGUGGCCCUUGGCAGCUCUACCAGUGAUGUUGGUCAAGGUCCU [#SwitchBubble 8 #StaticStem] | 1.05 | 0.511 | 0.86 | 0.716 | 0.899 |
| UGUACCGAGUCAGGAUAUGUCGUCGAAAGACGAAUCCUAGUGAUGUUAGGGAUCUGCGAAAGCAGUGCAGAAGGGACUUGGUACU [FmnBS 26 U20+G67] | 0.235 | 0.182 | 0.216 | 0.226 | 0.207 |
| CCUGCAGCUGUUACCGAGGGAUGCUACGGACGAGGACCGGUACGGCCGCCACUCGCCAGUGAUGUUGGUGAGGGAGGACGUUACU [KL-XTryp-A21] | 0.137 | 0.107 | 0.109 | 0.103 | 0.107 |
| UGGUCUGCACGAAGGAGCGCCCUGACAGGUUGCUGCCGUGGGCAGUGAUGUUGCUUAGUCCGGCAGGUAGGUCGCGUGCAGACCA | 0.21 | 0.205 | 0.243 | 0.189 | 0.17 |
| AGCUCACACGGAAGGAGCGGAUAGAACUGACAGUUGGGCUCAAGUGAUGUUUGGGCUUGAAUCCAGGUAGGUCGCCGUGUGAGCU [Arg B SS t12] | 0.136 | 0.0963 | 0.109 | 0.123 | 0.123 |
| UGACUGGACUGAAGGAGCGAGCGAGACAAAGUCUCGAAAAUUCAGUGAUGUUGAAAUAUAACUCAGGUAGGUCGCAGUCUAGUCU [ArgBS 4 #SwitchBubble #StaticStem] | 0.328 | 0.303 | 0.377 | 0.313 | 0.304 |
| AUUAAUUUCAGAGGAUAUCGUGAUUUUAUUUAAUUUAUUCAUUUGUGCAGUGAUGUUGCUAAUAUUCGAGAAGGCUGAUUUAUAA [whbob_Ex_FMNB__2th224] | 0.107 | 0.109 | 0.0462 | 0.11 | 0.0449 |
| CGCAAAUCGUCGGCCGCCACUGCAUUUGAACGCUAAUUGUCUCUGCGCGGAGUGAUGUUCUGUGCCAGGACCGGGACGGAUUUCG [theeternabot_exclusion_KL_Trp_B_21] | 0.446 | 0.381 | 0.517 | 0.499 | 0.146 |
| AGGUCACCACUACAGUGAUGUUGUGGAGAGCAGGAUAUGCAGAAAUGCAGAAGGGCUCGCUCUCGGUGACCGAAUGAAACAUUCA [Omei KL FMN A SS A v7] | 0.404 | 0.67 | 0.766 | 0.476 | 0.704 |
| UUCAGGUGUUCGGCCGCCACUCCAGUGAUGUUGGAGUGGCUUCACAAGGGCCAGGACAAUGUAGGGAGGACCGGGAAUAUCGCAG [Atvebeance] | 0.143 | 0.117 | 0.129 | 0.107 | 0.125 |
| CUUGGAAAGACGGCCGCCACUGGCCAGUGAUGUUGGCCCACCAGGUAAGCCAAGAAGCUUGACGUCAGGACCGGGUCCUAGGAAU [Exclusion TRyptophan B GF 23] | 0.363 | 0.449 | 0.41 | 0.314 | 0.359 |
| CCGACUGCAGGAAGGAGCGGCGGUUGGAGUGAUGUUCCAGGUAGUGAUGUUACCAAGAUCCGCCAGGUAGGUCGCCUGUUGCUCA [Same State Arginie B GF 12] | 0.156 | 0.106 | 0.115 | 0.148 | 0.125 |
| AUUUUGGUUUAGAGUGAUGUUCCUUGUAUUCGAGGACCGGUACGGCCGCCACUCGAAUAGAAAAGAAAAGAAAUGAGUGAUGUUU [BDazzled - #4 SS Tryptophan A] | 0.519 | 0.267 | 0.362 | 0.357 | 0.356 |
| GCGCGUCAUGUCAGCGGUGACACUGUCGAUACCAGCGCCGCAAGGCGCCCUUGGCAGCGACGCGCUGGAGUGAUGUUCCAGCGUG [#2 Exclusion - Theophylline A Attempt #14 (HarryS)] | 0.154 | 0.148 | 0.164 | 0.143 | 0.169 |
| UGUACCGAGUCAGGAUAUCAUAAAGUUGGAGUGAUGUUCCAAUAACGACUGACAAAGUCGGUCGAUUGAGAAGGGACUUGGUACU [FmnBS 9 #SwitchBubble #StaticStem] | 0.16 | 0.139 | 0.141 | 0.143 | 0.151 |
| CCUAUCUCAUACGAUACCAGUCCGAGUGAUGUUCGAACAGGUUUUAGUUUGCCAUAUAAUGACCCUUGGCAGCGUAUGGGAUAGG [Ex Theophylline B K4 13] | 0.167 | 0.123 | 0.163 | 0.13 | 0.137 |
| GGAUCCACCAGUGAUGUUGGAGAAAACUCUAAGGAUAUGACGAAAGUCAGAAGGUGGUAGACUGGACAAAGUCCGGUCGGAUCCA [FmnA 23 U30] | 1.21 | 0.177 | 0.397 | 0.263 | 0.347 |
| UUCGGAUAAGUCCUUCCGAAGAAGCCGGAAGGAGCGACUCAAUAGUCAGGUAGGUCGCCGGCAAGCGUAGUGAUGUUAUGCUCAC [Arg A SS t6] | 0.966 | 0.598 | 0.882 | 0.713 | 0.74 |
| ACGCUUGAAUAACAAGCGAAAUAAAAUUCGCGAGGACCGGUACGGCCGCCACUCGCUAACUGCGAGUGAUGUUCGAUAAUAAAAU [Mat - Mod of OpenEnded 3 - D16] | 0.139 | 0.0802 | 0.129 | 0.208 | 0.0691 |
| UGACUGGACUGAAGGAGCGCUAAACUCCUAGUGAUGUUAGGAAAUACGAGACAAAGUCUCGGGCAGGUAGGUCGCAGUCUAGUCU [ArgBS 19 #SwitchBubble #StaticStem] | 0.122 | 0.118 | 0.132 | 0.128 | 0.101 |
